Measured values published in US20030175679A1, “Methods for cell screening of compounds capable of modulating the activity of ubiquitin-ligase scf complexes and their uses” (priority 1999, published 2003).

B1: Ha-Met28: full-length Met28 protein with a repetition of 3 hemagglutinin (Ha) antigenic units at its amino-terminal end (protein, UniProt P40573 1-187, looked up)
chain: MSAKQGWEKKSTNIDIASRKGMNVNNLSEHLQNLISSDSELGSRLLSLLLVSSGNAEELISMINNGQDVSQFKKLREPRKGKVAATTAVVVKEEEAPVSTSNELDKIKQERRRKNTEASQRFRIRKKQKNFENMNKLQNLNTQINKLRDRIEQLNKENEFWKAKLNDINEIKSLKLLNDIKRRNMGR
modifications: full-length N-terminal 3x HA tag
notes: full-length Met28 protein with a repetition of 3 hemagglutinin (Ha) antigenic units at its amino-terminal end
B2: Ha-Met4: Met4 protein derivative with three hemagglutinin (Ha) antigenic units at its amino-terminal end, expressed in yeast under the GAL1 promoter (protein, UniProt P32389 1-672, looked up)
Transcriptional activator of …: MKQEQSHEGDSYSTEFINLFGKDTATHPSSNNGANNNGMGSTNSLDQFVATASSSSSLVTSSENRRPLIGDVTNRGNTNLYDHAVTPEILLEQLAYVDNFIPSLDNEFSNVDWNVNTTHNNANNNGADTFSSINANPFDLDEQLAIELSAFADDSFIFPDEDKPSNNNNNSNNGNDDHSNHDVLHEDPSTNNRQRNPHFLTQRRNTFLTSQYDQSKSRFSSKNKRNGNNGETNNFGDNMQNNHPFEPNFMGSPSQFPADATNMTSIDHGGFTNVDITSTENNTTGDNGVDALSNLLHRTTHTPNRSSPLSNVTSAQNSSSQQRKHSESKVDSNSDNNSSNKAPNITVPDYSIIPTSVLVTLLPRVNVPNGAYNSLISAGFDNDQIDAIAAIMAYHHQKKIRENNSNNNKNINTNDSQEAPILKNINELLSVLIPPSPAETRGPTTLSTSPSFNEHGVVAEASFLSSILELGIKHPKSNNIHNQRQPSRNDHKISRESDGNNGNDNVHHNNAVIKSSTTRGDEIAKIRSEPTLNASSSDHKENSLKRSHSGDLKNKKVPVDRKYSDNEDDEYDDADLHGFEKKQLIKKELGDDDEDLLIQSKKSHQKKKLKEKELESSIHELTEIAASLQKRIHTLETENKLLKNLVLSSGETEGIKKAESLKKQIFEKVQKE
modifications: N-terminal 3x HA tag
notes: Met4 protein derivative with three hemagglutinin (Ha) antigenic units at its amino-terminal end, expressed in yeast under the GAL1 promoter
B3: Ha-Met30: full-length Met30 protein with a repetition of 3 hemagglutinin (Ha) antigenic units at its amino-terminal end (protein, UniProt P39014 1-640, looked up)
chain: MRRERQRMMSFEDKDKDDLDNSNSNNSSEMTDTAMMPPLKRLLITGSSDDLAQGSSGKKKMTMATRSPSSSPDLATNDSGTRVQPLPEYNFTKFCYRHNPDIQFSPTHTACYKQDLKRTQEINANIAKLPLQEQSDIHHIISKYSNSNDKIRKLILDGILSTSCFPQLSYISSLVTHMIKIDFISILPQELSLKILSYLDCQSLCNATRVCRKWQKLADDDRVWYHMCEQHIDRKCPNCGWGLPLLHMKRARIQQNSTGSSSNADIQTQTTRPWKVIYRERFKVESNWRKGHCRIQEFKGHMDGVLTLQFNYRLLFTGSYDSTIGIWDLFTGKLIRRLSGHSDGVKTLYFDDRKLITGSLDKTIRVWNYITGECISTYRGHSDSVLSVDSYQKVIVSGSADKTVKVWHVESRTCYTLRGHTEWVNCVKLHPKSFSCFSCSDDTTIRMWDIRTNSCLKVFRGHVGQVQKIIPLTIKDVENLATDNTSDGSSPQDDPTMTDGADESDTPSNEQETVLDENIPYPTHLLSCGLDNTIKLWDVKTGKCIRTQFGHVEGVWDIAADNFRIISGSHDGSIKVWDLQSGKCMHTFNGRRLQRETQHTQTQSLGDKVAPIACVCIGDSECFSGDEFGCVKMYKFDLND
modifications: full-length N-terminal 3x HA tag
notes: full-length Met30 protein with a repetition of 3 hemagglutinin (Ha) antigenic units at its amino-terminal end

The molecules below were run on Yeast cells (assay: Stability of Ha-labeled hybrid proteins expressed from the GAL1 promoter, measured with anti-Ha antibodies). Conditions: in the absence of methionine (-Met).
Format: cell-based, S. cerevisiae

Molecule | half-life of the hybrid protein [min]
B1 | ~20
B2 | ~20
B3 | ~20

Same assay, conditions: repressive conditions, in the presence of methionine (+Met)

Molecule | half-life of the hybrid protein
B1 | do not modify the half-life
B2 | ~5 min
B3 | do not modify the half-life
